Laboratory results reported in US20240116985A1 (published 2024).
Starred links: 1 amine or outer side, 2 acyl side, 3 side chain; linkers in the order of their positions; H or OH if unused. Positions of bridges follow the written chain, without caps; N, C: chain ends. Non-standard residues stand in square brackets, D forms with d. Primed or numbered codes have the meaning given here. No end group written: not given here. (Pfbn)GA″ = [Pfbn]GA: (S)-2-amino-3-((carboxymethyl)((perfluorophenyl)methyl)amino)propanoic acid, O=C([C@H](CN(CC(=O)[*:3])Cc1c(F)c(F)c(F)c(F)c1F)N[*:1])[*:2]; PyrS2″ = (S)-3-amino-1-((pent-4-en-1-yloxy)carbonyl)pyrrolidine-3-carboxylic acid (stapling residue), C=CCCCOC(=O)N1CC[C@@](N[*:1])(C(=O)[*:2])C1; (Tfp)GA = [Tfp]GA: (S)-2-amino-3-((carboxymethyl)(3,3,3-trifluoropropyl)amino)propanoic acid, O=C([C@H](CN(CCC(F)(F)F)CC(=O)[*:3])N[*:1])[*:2]; B5(4) = 2,2-bis(4-pentenyl)glycine = 2-amino-2-(pent-4-en-1-yl)hept-6-enoic acid (stitching residue), C=CCCCC(CCCC=C)(N[*:1])C(=O)[*:2]; (Tfb)GA = (S)-2-amino-3-((carboxymethyl)(4,4,4-trifluorobutyl)amino)propanoic acid, O=C([C@H](CN(CCCC(F)(F)F)CC(=O)[*:3])N[*:1])[*:2]; TfeGA = (S)-2-amino-3-((carboxymethyl)(2,2,2-trifluoroethyl)amino)propanoic acid, O=C([C@H](CN(CC(=O)[*:3])CC(F)(F)F)N[*:1])[*:2]; PyrS2 = (S)-3-amino-1-((pent-4-en-1-yloxy)carbonyl)pyrrolidine-3-carboxylic acid, C=CCCCOC(=O)N1CC[C@@](N[*:1])(C(=O)[*:2])C1; (Bn)GA″ = [Bn]GA: (S)-2-amino-3-(benzyl(carboxymethyl)amino)propanoic acid, O=C([C@H](CN(CC(=O)[*:3])Cc1ccccc1)N[*:1])[*:2]; (Et)GA = [Et]GA: (S)-2-amino-3-((carboxymethyl)(ethyl)amino)propanoic acid, CCN(CC(=O)[*:3])C[C@H](N[*:1])C(=O)[*:2]; (Me)GA = (S)-2-amino-3-((carboxymethyl)(methyl)amino)propanoic acid, CN(CC(=O)[*:3])C[C@H](N[*:1])C(=O)[*:2]; B5(3) = 2,2-bis(4-pentenyl)glycine (stitching residue), C=CCCCC(CCCC=C)(N[*:1])C(=O)[*:2]; B5 = 2-amino-2-(pent-4-en-1-yl)hept-6-enoic acid, C=CCCCC(CCCC=C)(N[*:1])C(=O)[*:2]; Phe(2-CF3) = N[C@@H](Cc1ccccc1C(F)(F)F)C(=O)O; Phe(2-CONH2) = NC(=O)c1ccccc1C[C@H](N)C(=O)O; Phe(2-Br) = N[C@@H](Cc1ccccc1Br)C(=O)O; Phe(2-Cl) = N[C@@H](Cc1ccccc1Cl)C(=O)O; Phe(2-OMe) = COc1ccccc1C[C@H](N)C(=O)O; 2Nal = N[C@@H](Cc1ccc2ccccc2c1)C(=O)O; Phe(2-F) = N[C@@H](Cc1ccccc1F)C(=O)O; Bta = N[C@@H](Cc1csc2ccccc12)C(=O)O; Lys(iPr) = CC(C)NCCCC[C@H](N)C(=O)O; αAllylPro = C=CC[C@@]1(C(=O)O)CCCN1; tBuAla = CC(C)(C)C[C@H](N)C(=O)O; 3Thi = N[C@@H](Cc1ccsc1)C(=O)O; Cha = N[C@@H](CC1CCCCC1)C(=O)O; S8 = C=CCCCCCC[C@](C)(N)C(=O)O; Thr(ol) = C[C@@H](O)[C@H](N)CO

T1: B-cat-Halo (UniProt P35222 1-781)
T1 sequence (looked up): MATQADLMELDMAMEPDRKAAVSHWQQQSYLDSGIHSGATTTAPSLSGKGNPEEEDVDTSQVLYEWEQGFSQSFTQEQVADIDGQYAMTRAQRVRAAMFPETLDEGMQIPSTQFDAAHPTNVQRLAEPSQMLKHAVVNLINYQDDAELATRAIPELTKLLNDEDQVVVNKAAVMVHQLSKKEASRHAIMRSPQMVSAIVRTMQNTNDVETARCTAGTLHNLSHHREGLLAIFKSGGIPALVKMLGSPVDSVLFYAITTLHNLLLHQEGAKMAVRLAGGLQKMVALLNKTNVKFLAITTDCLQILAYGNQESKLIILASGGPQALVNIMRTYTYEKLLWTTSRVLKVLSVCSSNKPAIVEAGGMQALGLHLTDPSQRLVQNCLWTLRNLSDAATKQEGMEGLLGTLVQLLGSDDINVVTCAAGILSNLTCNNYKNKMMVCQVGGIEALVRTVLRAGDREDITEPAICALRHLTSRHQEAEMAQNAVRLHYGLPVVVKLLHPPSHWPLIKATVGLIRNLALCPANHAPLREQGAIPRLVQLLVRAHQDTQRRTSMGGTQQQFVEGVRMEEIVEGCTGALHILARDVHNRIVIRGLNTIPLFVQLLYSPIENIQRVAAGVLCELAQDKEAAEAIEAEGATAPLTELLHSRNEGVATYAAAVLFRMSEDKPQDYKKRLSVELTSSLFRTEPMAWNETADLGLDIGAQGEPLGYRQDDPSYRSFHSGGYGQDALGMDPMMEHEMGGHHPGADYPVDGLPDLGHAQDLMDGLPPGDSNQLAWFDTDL

T2: B-cat-Halo (UniProt P35222 1-781)
T2 sequence (looked up): T1 sequence (looked up)

T3: B-cat-Halo (UniProt P35222 1-781)
T3 sequence (looked up): T1 sequence (looked up)


What was measured:
Assay in all cases: cell-based or functional assay
B-cat-Halo [1] = target: T1, B-cat-Halo
B-cat-Halo [2] = target: T2, B-cat-Halo; remark: listed apart in the source
B-cat-Halo [3] = target: T3, B-cat-Halo; remark: listed apart in the source

Binder	NanoBRET Abs IC50 (B-cat-Halo [1])	NanoBRET Abs IC50 (B-cat-Halo [3])	other results
Ac-[αAllylPro]D[tBuAla][B5(3)]DDAAFN[PyrS2][3Thi][2Nal]H-NH2 (staple 1-4, 4-11) [I-790]			NanoBRET Abs IC50 (B-cat-Halo [2]): > 20 µM
Ac-[αAllylPro]D[tBuAla][B5(4)]DDAAFN[PyrS2″][Phe(2-Br)][Bta]Q-NH2 (staple 1-4, 4-11) [I-1323]		11.7 µM	
Ac-[αAllylPro]D[tBuAla][B5(4)]DDAAFN[PyrS2″][Phe(2-CF3)][Bta]Q-NH2 (staple 1-4, 4-11) [I-1317]		9.7 µM	
Ac-[αAllylPro]D[tBuAla][B5(4)]DDAAFN[PyrS2″][Phe(2-CONH2)][Bta]Q-NH2 (staple 1-4, 4-11) [I-1314]		> 20 µM	
Ac-[αAllylPro]D[tBuAla][B5(4)]DDAAFN[PyrS2″][Phe(2-F)][Bta]Q-NH2 (staple 1-4, 4-11) [I-1320]		26.2 µM	
Ac-[αAllylPro]D[Cha][B5(4)]DDAAFT[PyrS2″][Phe(2-Cl)][Bta][Thr(ol)] (staple 1-4, 4-11) [I-1312]		16.1 µM	
Ac-[αAllylPro]D[tBuAla][B5(4)]DDAAFF[PyrS2″][2cbmF][Bta]Q-NH2 (staple 1-4, 4-11) [I-1316]		6.8 µM	
Ac-[αAllylPro]D[tBuAla][B5(4)]DDAAFL[PyrS2″][Phe(2-F)][Bta]Q-NH2 (staple 1-4, 4-11) [I-1321]		10.9 µM	
[αAllylPro]D[tBuAla][B5(4)]DDAAFF[PyrS2″][Phe(2-OMe)][Bta]Q-NH2 (staple 1-4, 4-11) [I-1328]		5.4 µM	

Further lines, with some results ahead:

NanoBRET Abs IC50 (B-cat-Halo [1])	NanoBRET Abs IC50 (B-cat-Halo [3])	Binder	other results
16.5 µM		Ac-[αAllylPro]D[tBuAla][B5(3)]D[(Tfb)GA]AAFN[PyrS2][3Thi][Bta]Q-NH2 (staple 1-4, 4-11) [I-1634]	
42.9 µM		Ac-[αAllylPro]D[tBuAla][B5(3)]D[(Pfbn)GA″]AAFN[S8][3Thi][Bta]Q-NH2 (staple 1-4, 4-11) [I-1624]	
8 µM		Ac-[αAllylPro]D[tBuAla][B5(3)]D[TfeGA]AAFT[PyrS2″][Phe(2-Cl)][Bta][Lys(iPr)]-NH2 (staple 1-4, 4-11) [I-1615]	
	35 µM	[αAllylPro]D[tBuAla][B5]DDAAFN[PyrS2][Cha][Bta]Q-NH2 (staple 1-4, 4-11) [I-1329]	
> 20 µM		Ac-[αAllylPro]D[tBuAla][B5(3)]D[(Me)GA]AAFN[PyrS2][3Thi][Bta]Q-NH2 (staple 1-4, 4-11; also: earlier eluting staple isomer) [I-1636]	
5 µM		Ac-[αAllylPro]D[tBuAla][B5(3)]D[(Bn)GA″]AAFL[PyrS2″][3Thi][Bta]Q-NH2 (staple 1-4, 4-11) [I-1630]	
> 20 µM		Ac-[αAllylPro]D[tBuAla][B5(3)]D[(Et)GA]AAFN[S8][3Thi][Bta]Q-NH2 (staple 1-4, 4-11; also: later eluting staple isomer) [I-1628]	
29.3 µM		Ac-[αAllylPro]D[tBuAla][B5(3)]D[(Tfp)GA]AAFN[S8][3Thi][Bta]Q-NH2 (staple 1-4, 4-11) [I-1625]	
